# Laboratory results reported in PMC12344693, “Human Milk Oligosaccharides Multivalently Presented on Defined Synthetic Neo-Glycoproteins Are Nanomolar Ligands of Tandem-Repeat Galectins” (Biomacromolecules, 2025).
# T1: Asialofetuin (UniProt P12763 19-359, asialo form (glycans without sialic acid), by its name only)
# T1 construct: asialofetuin (desialylated fetuin); neither source nor species is stated; It is coated on the ELISA plate (0.1 µM in PBS); also called ASF
# T1 sequence (looked up): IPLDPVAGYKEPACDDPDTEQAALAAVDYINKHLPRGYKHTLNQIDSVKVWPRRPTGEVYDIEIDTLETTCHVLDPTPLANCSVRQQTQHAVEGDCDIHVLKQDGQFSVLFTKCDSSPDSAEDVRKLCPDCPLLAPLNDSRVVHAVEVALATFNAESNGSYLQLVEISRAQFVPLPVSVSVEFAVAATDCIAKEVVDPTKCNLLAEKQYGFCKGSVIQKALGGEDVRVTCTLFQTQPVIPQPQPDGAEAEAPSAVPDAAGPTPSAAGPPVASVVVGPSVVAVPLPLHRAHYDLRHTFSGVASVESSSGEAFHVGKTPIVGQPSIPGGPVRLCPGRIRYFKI
# Legend:
# [1] = biological target: T2, neo-glycoprotein NGP5 (LN2-Lac-HSA) (human, UniProt P02768 25-609, LN2-Lac (Galβ4GlcNAcβ3Galβ4Glc) on an ethylthioureidyl linker, coupled through squaric acid to lysine residues; approximately 5 to 9 glycans per HSA molecule (number in Table S7); positions not stated); test: BLI; biotinylated galectin constructs (2 μg/mL in PBS, 0.05% Tween-20) immobilised on streptavidin biosensors; neo-glycoproteins 1.56-100 nM in solution; 25 °C, 850 rpm; association 450 s, dissociation 600 s; Langmuir 1:1 kinetic model; details: both partners purified
# T2 construct: human serum albumin (HSA), carrier protein of the neo-glycoprotein; source: washed with water by ultracentrifugation
# Asialofetuin = biological target: T1, Asialofetuin; test: ELISA; direct ELISA: ASF immobilised on microtiter plates, serial dilution of the galectin in EPBS (PBS with 2 mM EDTA, 50 µL/well); otherwise as the competitive ELISA (anti-His-tag-HRP detection); details: both partners purified
Kd [1],Kd (Asialofetuin),Binder
0.05 ± 0.01 nM,–,"Gal-9-AVI-link (monobiotinylated full-length galectin-9) (natural protein, human, UniProt O00182 1-355, looked up, biotin on the single lysine of the AVI-tag (…), human galectin-9 (Gal-9), both CRDs with the linker peptide; prepared as described previously; source: E. coli BL21(λDE3) cotransformed with the birA gene (biotin ligase), biotinylated in vivo; see Supporting Information, Section 6; not shown: (GGS)5 linker between AVI-tag and galectin, N-terminal, kept) MAFSGSQAPYLSPAVPFSGTIQGGLQDGLQITVNGTVLSSSGTRFAVNFQTGFSGNDIAFHFNPRFEDGGYVVCNTRQNGSWGPEERKTHMPFQKGMPFDLCFLVQSSDFKVMVNGILFVQYFHRVPFHRVDTISVNGSVQLSYISFQNPRTVPVQPAFSTVPFSQPVCFPPRPRGRRQKPPGVWPANPAPITQTVIHTVQSAPGQMFSTPAIPPMMYPHPAYPMPFITTILGGLYPSKSILLSGTVLPSAQRFHINLCSGNHIAFHLNPRFDENAVVRNTQIDNSWGSEERSLPRKMPFVRGQSFSVWILCEAHCLKVAVDGQHLFEYYHRLRNLPTINRLEVGGDIQLTHVQT"
–,2300 ± 800 nM,"Gal-4-AVI-link (natural protein, human, UniProt P56470 1-323, looked up, biotin on the single lysine of the AVI-tag, human galectin-4, full-length tandem-repeat galectin with the native full-length peptide linker of 28 aa (2979 Da); synthetic gene (Biocat) in pET-Duet1; also called Gal-4 (AVI-tag); source: E. coli BL21(λDE3) co-expressing biotin ligase BirA, purified (Ni-NTA); not shown: His6, N-terminal, kept) MAYVPAPGYQPTYNPTLPYYQPIPGGLNVGMSVYIQGVASEHMKRFFVNFVVGQDPGSDVAFHFNPRFDGWDKVVFNTLQGGKWGSEERKRSMPFKKGAAFELVFIVLAEHYKVVVNGNPFYEYGHRLPLQMVTHLQVDGDLQLQSINFIGGQPLRPQGPPMMPPYPGPGHCHQQLNSLPTMEGPPTFNPPVPYFGRLQGGLTARRTIIIKGYVPPTGKSFAINFKVGSSGDIALHINPRMGNGTVVRNSLLNGSWGSEEKKITHNPFGPGQFFDLSIRCGLDRFKVYANGQHLFDFAHRLSAFQRVDTLEIQGDVTLSYVQI"
